This note sets out measurements from patent publication US20190352376A1.

“And” between values parts separate entries of the source, which are not always exact repeats. Equal values may be shown once.

This assay deals with peptide-conjugate (Example 1; lactosyl-Ser-…-Cys coupled to KLH) (influenza virus).

B1: F211-11H12 (antibody, V domains shown)
VL: DIVMSQSPSSLAVSVGEKVTMSCKSSQSLLNSRNQKNHLAWYQQKPGQSPKLLIYWASTRESGVPDRFTGDGSGTDFTLTISSVKAEDLAVYYCQQYYTYRTFGGGTKLEIK
VH: DVQLQESGPGLVKPSQSLSLTCSVTGYSITSDYYWNWIRQFPGNKLEWMAYIGYDGTKNYNPSLKNRISITRDTSKNQFFLKLNSVTTDDTATYYCTRDRANWDDYFDYWGQGTTLTVSS
Consider B1, for which the concentration giving a half-maximal response (EC50 (read off the curve)) is 0.03 µg/mL and 0.02 µg/mL.

For orientation: EC50 (read off the curve) means the midpoint of the concentration-response curve. A high value points to weaker potency.
